{"source": "patent US20110124706A1", "about": "“SOCS3 Inhibition Promotes CNS Neuron Regeneration” (priority 2009, published 2011)", "test_system": "injured optic nerve axons", "test": "optic nerve crush injury, axon regeneration assessed by CTB anterograde tracing", "type": "in vivo, mice", "conditions": "intravitreal 1 μl CNTF (1 μg/μl) immediately before and 3 days after injury", "protocol": "We applied optic nerve crush injury to assess axon growth ability in adult CNS in different conditional floxed mice (Park et al., 2008 Science 322, 963-966). Intravitreal application of recombinant adeno-associated viruses expressing Cre (AAVCre) results in Cre-dependent reporter expression in more than 90% of RGCs. Regeneration was assessed in the injured optic nerve axons by using cholera toxin beta subunit (CTB), an anterograde tracer, which was injected into the vitreous of the retina following optic nerve injury two days prior to histological analyses. Neuronal survival was assessed using whole-mount staining of the retinal tissue by immunostaining with an anti-β-III tubulin antibody, a commonly used marker of RGCs.\nWe intravitreously injected 1 μl CNTF (1 μg/μl) immediately before injury and 3 days after injury (PBS injection was used as control).", "note": "“Also recorded” adds a separate entry of the source.", "data": [{"molecule": "ciliary neurotrophic factor (protein, UniProt P26441 1-200, looked up) Ciliary neurotrophic factor: MAFTEHSPLTPHRRDLCSRSIWLARKIRSDLTALTESYVKHQGLNKNINLDSADGMPVASTDQWSELTEAERLQENLQAYRTFHVLLARLLEDQQVHFTPTEGDFHQAIHTLLLQVAAFAYQIEELMILLEYKIPRNEADGMPINVGDGGLFEKKLWGLKVLQELSQWTVRSIHDLRFISSHQTGIPARGSHYIANNKKM", "values": [{"measurement": "numbers and lengths of regenerating axons", "setting": "SOCS3 deleted mice", "value": "dramatic increase; also recorded: further enhances"}, {"measurement": "axon regeneration", "setting": "control mice (SOCS3f/f with AAV-GFP)", "value": "limited degree of axon regeneration"}]}]}
